This note sets out measurements from article PMC2734569, “Functional mapping of the fission yeast DNA polymerase δ B-subunit Cdc1 by site-directed and random pentapeptide insertion mutagenesis” (BMC Molecular Biology, 2009).

Bounds are passed on as bounds.

What all share (assay): two-hybrid; LexA-Cdc1 bait (pBTM116 or pBTM116BN) with Gal4-Pol3 prey and co-expressed c-myc-tagged Cdc27 (pAA-Cdc27) in S. cerevisiae CTY10-5d; ONPG liquid culture beta-galactosidase assay, mean of triplicates, as percent of wild-type Cdc1
Holding throughout (settings): partners not purified

Experiment [1] deals with T1, Cdc1-E4 (Schizosaccharomyces pombe, UniProt P87324 1-462, Cys-GlyValProProCys-Glu).
T1 construct: Cdc1, S. pombe, with a pentapeptide inserted after residue 10; source: yeast two-hybrid fusion, in S. cerevisiae CTY10-5d
T1 sequence (looked up): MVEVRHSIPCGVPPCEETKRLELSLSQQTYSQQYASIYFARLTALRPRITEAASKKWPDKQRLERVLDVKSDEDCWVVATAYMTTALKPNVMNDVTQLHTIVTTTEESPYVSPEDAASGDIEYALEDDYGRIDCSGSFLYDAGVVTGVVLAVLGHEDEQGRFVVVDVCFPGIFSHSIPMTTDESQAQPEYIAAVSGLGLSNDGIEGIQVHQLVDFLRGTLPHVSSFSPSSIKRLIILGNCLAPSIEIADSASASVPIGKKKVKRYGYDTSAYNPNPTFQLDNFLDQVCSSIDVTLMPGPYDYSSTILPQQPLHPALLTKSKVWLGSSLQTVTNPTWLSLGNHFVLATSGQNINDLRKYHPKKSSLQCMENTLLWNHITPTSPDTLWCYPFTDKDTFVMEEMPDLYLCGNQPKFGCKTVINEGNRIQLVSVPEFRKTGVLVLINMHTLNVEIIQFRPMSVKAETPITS

Experiment [2] deals with T2, Cdc1-A9 (Schizosaccharomyces pombe, UniProt P87324 1-462, Pro292Ala | Gly293Ala).
T2 construct: Cdc1, S. pombe, double point mutant (A1 and A2 combined); source: yeast two-hybrid fusion, in S. cerevisiae CTY10-5d
T2 sequence (looked up): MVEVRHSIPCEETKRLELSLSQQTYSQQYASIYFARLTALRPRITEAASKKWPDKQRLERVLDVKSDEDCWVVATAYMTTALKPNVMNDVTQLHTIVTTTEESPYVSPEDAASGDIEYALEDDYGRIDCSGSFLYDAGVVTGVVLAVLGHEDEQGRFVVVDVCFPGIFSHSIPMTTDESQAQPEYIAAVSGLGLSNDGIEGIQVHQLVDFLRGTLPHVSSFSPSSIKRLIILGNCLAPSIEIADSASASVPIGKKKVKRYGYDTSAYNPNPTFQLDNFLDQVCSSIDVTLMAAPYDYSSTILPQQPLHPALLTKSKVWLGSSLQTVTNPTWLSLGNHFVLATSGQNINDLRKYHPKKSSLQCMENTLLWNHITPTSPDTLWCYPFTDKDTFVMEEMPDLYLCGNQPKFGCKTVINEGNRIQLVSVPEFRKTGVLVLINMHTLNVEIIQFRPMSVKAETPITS

Experiment [3] deals with T3, Cdc1-A8 (Schizosaccharomyces pombe, UniProt P87324 1-462, Pro374Ala).
T3 construct: Cdc1, S. pombe, point mutant; source: yeast two-hybrid fusion, in S. cerevisiae CTY10-5d
T3 sequence (looked up): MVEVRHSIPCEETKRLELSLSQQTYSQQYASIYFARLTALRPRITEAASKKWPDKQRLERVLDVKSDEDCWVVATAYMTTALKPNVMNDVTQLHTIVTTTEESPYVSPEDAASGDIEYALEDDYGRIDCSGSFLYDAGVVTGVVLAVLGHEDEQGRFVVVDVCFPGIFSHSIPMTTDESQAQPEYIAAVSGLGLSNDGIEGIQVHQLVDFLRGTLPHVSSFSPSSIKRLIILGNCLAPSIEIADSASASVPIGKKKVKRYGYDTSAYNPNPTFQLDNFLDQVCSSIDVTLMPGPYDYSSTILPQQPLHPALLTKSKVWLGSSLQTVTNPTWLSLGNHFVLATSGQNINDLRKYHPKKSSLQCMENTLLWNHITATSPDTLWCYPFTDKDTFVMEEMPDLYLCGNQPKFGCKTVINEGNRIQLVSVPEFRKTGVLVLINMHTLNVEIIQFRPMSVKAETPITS

Experiment [4] has as its target T4, Cdc1-J7 (Schizosaccharomyces pombe, UniProt P87324 1-462, Met-GlyValProLeuMet-Glu).
T4 construct: Cdc1, S. pombe, with a pentapeptide inserted after residue 393; source: yeast two-hybrid fusion, in S. cerevisiae CTY10-5d
T4 sequence (looked up): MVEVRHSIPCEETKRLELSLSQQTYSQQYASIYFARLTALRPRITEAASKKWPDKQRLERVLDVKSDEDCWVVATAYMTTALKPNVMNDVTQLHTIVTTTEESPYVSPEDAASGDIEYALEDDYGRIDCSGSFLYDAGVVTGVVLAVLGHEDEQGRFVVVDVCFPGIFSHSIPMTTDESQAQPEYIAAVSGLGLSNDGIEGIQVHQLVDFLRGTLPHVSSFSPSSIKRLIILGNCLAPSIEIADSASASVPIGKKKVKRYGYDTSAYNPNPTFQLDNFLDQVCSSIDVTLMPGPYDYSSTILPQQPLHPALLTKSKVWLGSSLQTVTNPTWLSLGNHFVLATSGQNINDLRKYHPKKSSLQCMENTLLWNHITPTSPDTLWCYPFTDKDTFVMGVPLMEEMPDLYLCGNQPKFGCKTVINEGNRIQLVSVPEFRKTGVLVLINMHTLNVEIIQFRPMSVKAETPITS

B1: Pol3 (fission yeast DNA polymerase delta catalytic subunit) (natural protein, Schizosaccharomyces pombe, UniProt P30316 1-1086, looked up)
chain: MTDRSSNEGVVLNKENYPFPRRNGSIHGEITDVKRRRLSERNGYGDKKGSSSKEKTSSFEDELAEYASQLDQDEIKSSKDQQWQRPALPAINPEKDDIYFQQIDSEEFTEGSVPSIRLFGVTDNGNSILVHVVGFLPYFYVKAPVGFRPEMLERFTQDLDATCNGGVIDHCIIEMKENLYGFQGNEKSPFIKIFTTNPRILSRARNVFERGEFNFEELFPVGVGVTTFESNTQYLLRFMIDCDVVGMNWIHLPASKYQFRYQNRVSNCQIEAWINYKDLISLPAEGQWSKMAPLRIMSFDIECAGRKGVFPDPSIDPVIQIASIVTQYGDSTPFVRNVFCVDTCSQIVGTQVYEFQNQAEMLSSWSKFVRDVDPDVLIGYNICNFDIPYLLDRAKSLRIHNFPLLGRIHNFFSVAKETTFSSKAYGTRESKTTSIPGRLQLDMLQVMQRDFKLRSYSLNAVCSQFLGEQKEDVHYSIITDLQNGTADSRRRLAIYCLKDAYLPQRLMDKLMCFVNYTEMARVTGVPFNFLLARGQQIKVISQLFRKALQHDLVVPNIRVNGTDEQYEGATVIEPIKGYYDTPIATLDFSSLYPSIMQAHNLCYTTLLDSNTAELLKLKQDVDYSVTPNGDYFVKPHVRKGLLPIILADLLNARKKAKADLKKETDPFKKAVLDGRQLALKVSANSVYGFTGATNGRLPCLAISSSVTSYGRQMIEKTKDVVEKRYRIENGYSHDAVVIYGDTDSVMVKFGVKTLPEAMKLGEEAANYVSDQFPNPIKLEFEKVYFPYLLISKKRYAGLFWTRTDTYDKMDSKGIETVRRDNCPLVSYVIDTALRKMLIDQDVEGAQLFTKKVISDLLQNKIDMSQLVITKALSKTDYAAKMAHVELAERMRKRDAGSAPAIGDRVAYVIIKGAQGDQFYMRSEDPIYVLENNIPIDAKYYLENQLSKPLLRIFEPILGEKASSLLHGDHTRTISMAAPSVGGIMKFAVKVETCLGCKAPIKKGKTALCENCLNRSAELYQRQVAQVNDLEVRFARLWTQCQRCQGSMHQDVICTSRDCPIFYMRIAEHKKLQQSVDLLKRFDEMSW
notes: DNA polymerase delta catalytic subunit Pol3, S. pombe; prey plasmid named pACT-Pol3 in the results and pGAD2F-Pol3 in the methods; also called Gal4-Pol3; pACT-Pol3; source: yeast two-hybrid fusion, in S. cerevisiae CTY10-5d
With B1, the “two-hybrid beta-galactosidase activity, % of wild-type Cdc1” value in experiment [1] was 16%; in experiment [2], less than 1%; in experiment [3], 17%; in experiment [4] it was less than 1%.
